Laboratory results reported in US7410949 (Hoffmann-La Roche, dated 2008).
*1 amine or outer side, *2 acyl side, *3 side chain or, on linkers, in order; H or OH if unused. [ ]: non-standard residue; d: D form. Pqa = N-piperazin-1-yl-4(3H)-quinazolinone-3-acetic acid, O=C(Cn1cnc2ccc(N3CCN([*:1])CC3)cc2c1=O)[*:2]; Phe(3,4,5-F3) = N[C@@H](Cc1cc(F)c(F)c(F)c1)C(=O)O; Bip = N[C@@H](Cc1ccc(-c2ccccc2)cc1)C(=O)O; Dip = N[C@H](C(=O)O)C(c1ccccc1)c1ccccc1; 2Nal = N[C@@H](Cc1ccc2ccccc2c1)C(=O)O; Nle = CCCC[C@H](N)C(=O)O

B1: H-Ile-Lys-Pqa-Arg-His-Tyr-Leu-(D))Asn-Leu-Val-Thr-Arg-Gln-Arg-Tyr-NH2 (peptide)
peptide: IKRHYLNLVTRQRY
modifications: (D)Asn at PYY position 29 (residue 5 of the second part); Pqa moiety between the two parts; C-terminal amide
B2: Ac-Ile-Nle-Pqa-Arg-His-(3,4,5trifluorPhe)-Leu-Asn-Leu-Val-Thr-Arg-Gln-Arg-Tyr-NH2 (peptide)
peptide: Ac-I[Nle][Pqa]RH[Phe(3,4,5-F3)]LNLVTRQRY-NH2
SMILES: CCCC[C@H](NC(=O)[C@@H](NC(C)=O)[C@@H](C)CC)C(=O)N1CCN(c2ccc3ncn(CC(=O)N[C@@H](CCCNC(=N)N)C(=O)N[C@@H](Cc4c[nH]cn4)C(=O)N[C@@H](Cc4cc(F)c(F)c(F)c4)C(=O)N[C@@H](CC(C)C)C(=O)N[C@@H](CC(N)=O)C(=O)N[C@@H](CC(C)C)C(=O)N[C@H](C(=O)N[C@H](C(=O)N[C@@H](CCCNC(=N)N)C(=O)N[C@@H](CCC(N)=O)C(=O)N[C@@H](CCCNC(=N)N)C(=O)N[C@@H](Cc4ccc(O)cc4)C(N)=O)[C@@H](C)O)C(C)C)c(=O)c3c2)CC1
B3: Ac-Ile-Nle-Pqa-Arg-His-Bip-Leu-Asn-Leu-Val-Thr-Arg-Gln-Arg-Tyr-NH2 (peptide)
peptide: Ac-I[Nle][Pqa]RH[Bip]LNLVTRQRY-NH2
SMILES: CCCC[C@H](NC(=O)[C@@H](NC(C)=O)[C@@H](C)CC)C(=O)N1CCN(c2ccc3ncn(CC(=O)N[C@@H](CCCNC(=N)N)C(=O)N[C@@H](Cc4c[nH]cn4)C(=O)N[C@@H](Cc4ccc(-c5ccccc5)cc4)C(=O)N[C@@H](CC(C)C)C(=O)N[C@@H](CC(N)=O)C(=O)N[C@@H](CC(C)C)C(=O)N[C@H](C(=O)N[C@H](C(=O)N[C@@H](CCCNC(=N)N)C(=O)N[C@@H](CCC(N)=O)C(=O)N[C@@H](CCCNC(=N)N)C(=O)N[C@@H](Cc4ccc(O)cc4)C(N)=O)[C@@H](C)O)C(C)C)c(=O)c3c2)CC1
B4: Ac-Ile-Nle-Pqa-Arg-His-Dip-Leu-Asn-Leu-Val-Thr-Arg-Gln-Arg-Tyr-NH2 (peptide)
peptide: Ac-I[Nle][Pqa]RH[Dip]LNLVTRQRY-NH2
SMILES: CCCC[C@H](NC(=O)[C@@H](NC(C)=O)[C@@H](C)CC)C(=O)N1CCN(c2ccc3ncn(CC(=O)N[C@@H](CCCNC(=N)N)C(=O)N[C@@H](Cc4c[nH]cn4)C(=O)N[C@H](C(=O)N[C@@H](CC(C)C)C(=O)N[C@@H](CC(N)=O)C(=O)N[C@@H](CC(C)C)C(=O)N[C@H](C(=O)N[C@H](C(=O)N[C@@H](CCCNC(=N)N)C(=O)N[C@@H](CCC(N)=O)C(=O)N[C@@H](CCCNC(=N)N)C(=O)N[C@@H](Cc4ccc(O)cc4)C(N)=O)[C@@H](C)O)C(C)C)C(c4ccccc4)c4ccccc4)c(=O)c3c2)CC1
B5: Ac-Ile-Nle-Pqa-Arg-His-(2)Nal-Leu-Asn-Leu-Val-Thr-Arg-Gln-Arg-Tyr-NH2 (peptide)
peptide: Ac-I[Nle][Pqa]RH[2Nal]LNLVTRQRY-NH2
SMILES: CCCC[C@H](NC(=O)[C@@H](NC(C)=O)[C@@H](C)CC)C(=O)N1CCN(c2ccc3ncn(CC(=O)N[C@@H](CCCNC(=N)N)C(=O)N[C@@H](Cc4c[nH]cn4)C(=O)N[C@@H](Cc4ccc5ccccc5c4)C(=O)N[C@@H](CC(C)C)C(=O)N[C@@H](CC(N)=O)C(=O)N[C@@H](CC(C)C)C(=O)N[C@H](C(=O)N[C@H](C(=O)N[C@@H](CCCNC(=N)N)C(=O)N[C@@H](CCC(N)=O)C(=O)N[C@@H](CCCNC(=N)N)C(=O)N[C@@H](Cc4ccc(O)cc4)C(N)=O)[C@@H](C)O)C(C)C)c(=O)c3c2)CC1
B6: H-Ile-Lys-Pqa-Arg-(NMe)His-Tyr-Leu-Asn-Leu-Val-Thr-Arg-Gln-Arg-Tyr-NH2 (peptide)
peptide: IKRHYLNLVTRQRY
modifications: N-methyl His at PYY position 26 (residue 2 of the second part); Pqa moiety between the two parts; C-terminal amide
B7: Ac-Ile-Nle-Pqa-Phe-His-Tyr-Leu-Asn-Leu-Val-Thr-Arg-Gln-Arg-Tyr-NH2 (peptide)
peptide: Ac-I[Nle][Pqa]FHYLNLVTRQRY-NH2
SMILES: CCCC[C@H](NC(=O)[C@@H](NC(C)=O)[C@@H](C)CC)C(=O)N1CCN(c2ccc3ncn(CC(=O)N[C@@H](Cc4ccccc4)C(=O)N[C@@H](Cc4c[nH]cn4)C(=O)N[C@@H](Cc4ccc(O)cc4)C(=O)N[C@@H](CC(C)C)C(=O)N[C@@H](CC(N)=O)C(=O)N[C@@H](CC(C)C)C(=O)N[C@H](C(=O)N[C@H](C(=O)N[C@@H](CCCNC(=N)N)C(=O)N[C@@H](CCC(N)=O)C(=O)N[C@@H](CCCNC(=N)N)C(=O)N[C@@H](Cc4ccc(O)cc4)C(N)=O)[C@@H](C)O)C(C)C)c(=O)c3c2)CC1
B8: H-Ile-NMeLys-Pqa-Arg-His-Tyr-Leu-Asn-Leu-Val-Thr-Arg-Gln-Arg-Tyr-NH2 (peptide)
peptide: IKRHYLNLVTRQRY
modifications: N-methyl Lys at PYY position 4 (residue 2 of the first part); Pqa moiety between the two parts; C-terminal amide
B9: H-Ile-Lys-Pqa-Ala-His-Tyr-Leu-Asn-Leu-Val-Thr-Arg-Gln-Arg-Tyr-NH2 (peptide)
peptide: H-IK[Pqa]AHYLNLVTRQRY-NH2
SMILES: CC[C@H](C)[C@H](N)C(=O)N[C@@H](CCCCN)C(=O)N1CCN(c2ccc3ncn(CC(=O)N[C@@H](C)C(=O)N[C@@H](Cc4c[nH]cn4)C(=O)N[C@@H](Cc4ccc(O)cc4)C(=O)N[C@@H](CC(C)C)C(=O)N[C@@H](CC(N)=O)C(=O)N[C@@H](CC(C)C)C(=O)N[C@H](C(=O)N[C@H](C(=O)N[C@@H](CCCNC(=N)N)C(=O)N[C@@H](CCC(N)=O)C(=O)N[C@@H](CCCNC(=N)N)C(=O)N[C@@H](Cc4ccc(O)cc4)C(N)=O)[C@@H](C)O)C(C)C)c(=O)c3c2)CC1
B10: H-Ile-Lys-Pqa-Arg-His-Tyr-Leu-Asn-Leu-Val-Thr-Arg-Gln-Arg-(D)Tyr-NH2 (peptide)
peptide: IKRHYLNLVTRQRY
modifications: (D)Tyr at PYY position 36 (residue 12 of the second part); Pqa moiety between the two parts; C-terminal amide
B11: H-Ile-(D)Lys-Pqa-Arg-His-Tyr-Leu-Asn-Leu-Val-Thr-Arg-Gln-Arg-Tyr-NH2 (peptide)
peptide: IKRHYLNLVTRQRY
modifications: (D)Lys at PYY position 4 (residue 2 of the first part); Pqa moiety between the two parts; C-terminal amide
B12: H-Ile-Lys-Pqa-Arg-His-Tyr-(D)Leu-Asn-Leu-Val-Thr-Arg-Gln-Arg-Tyr-NH2 (peptide)
peptide: IKRHYLNLVTRQRY
modifications: (D)Leu at PYY position 28 (residue 4 of the second part); Pqa moiety between the two parts; C-terminal amide
B13: H-Ile-Lys-Pqa-Arg-His-Tyr-(NMe)Leu-Asn-Leu-Val-Thr-Arg-Gln-Arg-Tyr-NH2 (peptide)
peptide: IKRHYLNLVTRQRY
modifications: N-methyl Leu at PYY position 28 (residue 4 of the second part); Pqa moiety between the two parts; C-terminal amide
B14: H-Ile-Lys-Pqa-Arg-His-Tyr-Leu-Asn-Leu-(NMe)Val-Thr-Arg-Gln-Arg-Tyr-NH2 (peptide)
peptide: IKRHYLNLVTRQRY
modifications: N-methyl Val at PYY position 31 (residue 7 of the second part); Pqa moiety between the two parts; C-terminal amide

The binders below were run against Y4R (assay: cell-based or functional assay).

Binder	Y4R EC50(nM) FLIPR [nM]
B1	> 5000
B2	> 5000
B3	> 5000
B4	> 5000
B5	> 5000
B6	> 5000
B7	> 5000
B8	> 5000
B9	> 5000
B10	> 5000
B11	> 5000
B12	> 5000
B13	> 5000
B14	> 5000

The binders below were run against Y1R (assay: cell-based or functional assay).
Chain of Y1R (P25929 whole entry): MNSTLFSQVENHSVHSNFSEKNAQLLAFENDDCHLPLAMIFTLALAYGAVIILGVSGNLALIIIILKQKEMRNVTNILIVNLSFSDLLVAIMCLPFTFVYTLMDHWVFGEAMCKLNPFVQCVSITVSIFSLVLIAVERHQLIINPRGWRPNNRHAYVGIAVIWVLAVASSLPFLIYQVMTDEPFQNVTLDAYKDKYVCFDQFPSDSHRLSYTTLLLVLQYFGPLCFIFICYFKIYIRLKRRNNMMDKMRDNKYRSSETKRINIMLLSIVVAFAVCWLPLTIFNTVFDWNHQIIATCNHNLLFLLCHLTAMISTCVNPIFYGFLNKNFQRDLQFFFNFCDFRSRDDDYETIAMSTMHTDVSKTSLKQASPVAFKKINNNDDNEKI

Binder	Y1R EC50(nM) FLIPR [nM]
B7	> 5000
B11	> 5000
B13	> 5000
B14	> 5000
